Assay [1] has as its target T1, I59T human lysozyme (human) (UniProt P61626).
T1 sequence: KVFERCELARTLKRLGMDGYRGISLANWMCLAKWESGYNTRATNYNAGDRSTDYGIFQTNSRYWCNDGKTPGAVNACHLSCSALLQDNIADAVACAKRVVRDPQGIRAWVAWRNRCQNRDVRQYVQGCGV

Assay [2] deals with T1, I59T human lysozyme (human). The source holds these as a separate data set.
For assay [3], the target named is amyloid β peptide Aβ(1–42) (UniProt P05067).

B1: native α2-macroglobulin (natural protein)
chain: SVSGKPQYMVLVPSLLHTETTEKGCVLLSYLNETVTVSASLESVRGNRSLFTDLEAENDVLHCVAFAVPKSSSNEEVMFLTVQVKGPTQEFKKRTTVMVKNEDSLVFVQTDKSIYKPGQTVKFRVVSMDENFHPLNELIPLVYIQDPKGNRIAQWQSFQLEGGLKQFSFPLSSEPFQGSYKVVVQKKSGGRTEHPFTVEEFVLPKFEVQVTVPKIITILEEEMNVSVCGLYTYGKPVPGHVTVSICRKYSDASDCHGEDSQAFCEKFSGQLNSHGCFYQQVKTKVFQLKRKEYEMKLHTEAQIQEEGTVVELTGRQSSEITRTITKLSFVKVDSHFRQGIPFFGQVRLVDGKGVPIPNKVIFIRGNEANYYSNATTDEHGLVQFSINTTNVMGTSLTVRVNYKDRSPCYGYQWVSEEHEEAHHTAYLVFSPSKSFVHLEPMSHELPCGHTQTVQAHYILNGGTLLGLKKLSFYYLIMAKGGIVRTGTHGLLVKQEDMKGHFSISIPVKSDIAPVARLLIYAVLPTGDVIGDSAKYDVENCLANKVDLSFSPSQSLPASHAHLRVTAAPQSVCALRAVDQSVLLMKPDAELSASSVYNLLPEKDLTGFPGPLNDQDNEDCINRHNVYINGITYTPVSSTNEKDMYSFLEDMGLKAFTNSKIRKPKMCPQLQQYEMHGPEGLRVGFYESDVMGRGHARLVHVEEPHTETVRKYFPETWIWDLVVVNSAGVAEVGVTVPDTITEWKAGAFCLSEDAGLGISSTASLRAFQPFFVELTMPYSVIRGEAFTLKATVLNYLPKCIRVSVQLEASPAFLAVPVEKEQAPHCICANGRQTVSWAVTPKSLGNVNFTVSAEALESQELCGTEVPSVPEHGRKDTVIKPLLVEPEGLEKETTFNSLLCPSGGEVSEELSLKLPPNVVEESARASVSVLGDILGSAMQNTQNLLQMPYGCGEQNMVLFAPNIYVLDYLNETQQLTPEIKSKAIGYLNTGYQRQLNYKHYDGSYSTFGERYGRNQGNTWLTAFVLKTFAQARAYIFIDEAHITQALIWLSQRQKDNGCFRSSGSLLNNAIKGGVEDEVTLSAYITIALLEIPLTVTHPVVRNALFCLESAWKTAQEGDHGSHVYTKALLAYAFALAGNQDKRKEVLKSLNEEAVKKDNSVHWERPQKPKAPVGHFYEPQAPSAEVEMTSYVLLAYLTAQPAPTSEDLTSATNIVKWITKQQNAQGGFSSTQDTVVALHALSKYGAATFTRTGKAAQVTIQSSGTFSSKFQVDNNNRLLLQQVSLPELPGEYSMKVTGEGCVYLQTSLKYNILPEKEEFPFALGVQTLPQTCDEPKAHTSFQISLSVSYTGSRSASNMAIVDVKMVSGFIPLKPTVKMLERSNHVSRTEVSSNHVLIYLDKVSNQTLSLFFTVLQDVPVRDLKPAIVKVYDYYETDEFAIAEYNAPCSKDLGNA
Regarding B1, in assay [1], the I59T lysozyme left soluble at the endpoint (SDS–PAGE of supernatants) is over 90%. Also, the decrease of ThT fluorescence at the endpoint of I59T lysozyme fibril formation, lysozyme-to-α2M 10:1 in assay [2] is over 90%. Further, the suppression of ThT signal at the endpoint of Aβ(1–42) fibril formation, Aβ-to-α2M 10:1 in assay [3] was over 80%.

Source of the values: PMC3581772.
